From the RNAGym collection of RNA variant scans (doi:10.1073/pnas.2313332121)

B1: TPR t1 (parent)
chain: GACCAAUCUGCCCUCAGAGCUCGAGAACAUCUUCGGAUGCAGAGGAGGCAGGCUUCGGUGGCGCGAUAGCGCCAACGUCCUCAACCUCCAAUGCAUCCCACCACAUGAUGAUGCCUGAAGAGCCUUGGUUUUUUG

Variants of: B1
Assay: polymerase ribozyme fitness, log enrichment relative to wild type (log ratio); higher = more active; in vitro selection for triplet polymerase activity
How it was run: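 A single round of triplicate in vitro selection, including frozen incubation at −7 °C, was applied to PCR-built, transcribed mutant libraries of each subunit of a heterodimeric triplet polymerase ribozyme. Illumina sequencing of input and output libraries retained genotypes with ≥10 input reads and ≥1 read per output. Fitness is the base-2 logarithm of genotype enrichment divided by wild-type enrichment, from inverse-variance-weighted replicate averages.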

Going from GACCAAUCUGCCCUCAGAGCUCGAGAACAUCUUCGGAGGCAGAGGAGGCAGGCAUCGGUGGCGCGAUAGCGCCAACGUCCUCAACCUCCAAUGCAUCCCACCACAUGAUGAUGCCUGAAGAGCCUUGGUUUUUUG to GACCAAUCUGCCCUCAGAGCUCGAGAACAUCUUCGGGUGCAGAGGAGGCAGGCUUCGGUGGCGCGAUAGCGCGAACGUCCUCAACCUCCAAUGCAUCCCACCACAUGAAGAUGCCUGAAGAGCCUUGGUUUUUUG, the “polymerase ribozyme fitness (log ratio)” value falls from -0.658 to -7.2.

Going from GACCAAUCUGCCCUCAGAGCUCGAGAACAUCUUCGGAUGCAGAGGAGGCAGGCUUCGGUAGCGCGAUAGCGCCAACGACCUCAACCUCCAAUGCAUCCCACCACAUCAUGUUGCCUGAAGAGCCUUGGUUUUUUG to GAACAAUCUGCCCUCAGAGCUCGAGAACAUCUUCGGAUGCAGAGGAGGCAGGCUUCGGUGGCGCGAUAGCGCCAACGUCCUCAACCUCCAAUGCAUCCCACCACAUGAUGAUGCCUGAAGAGCAUUGGUUUUUUG, the “polymerase ribozyme fitness (log ratio)” value rises from -5.18 to -0.333.

First: GACCAAUCUGCCCUCAGAGCUCGAGAACAUCUUCGGAUGCAGAGGAGGCAGGCUUGGGUGGCGCGAUAGCUCCAACGUCCUCAACCUCCAAUGCAUCCCACCACAUGAUGAUGCCUGAAGAGCCUUGGUUUUUUG
Second: GACCAAUCUGCCCUCAGAGCUCGAGAACAUCUUCGGAUGCAGAGGAGGCAGACUUCGGUGGCGCGAUAGUGCCAACAGUCUCAACCUCCAAUGCAUCCCACCACAUGAUGAUGCCUUAAGAGCCUUGGUUUUUUG
The “polymerase ribozyme fitness (log ratio)” value of the first is higher: -3.27 for the first, -3.69 for the second.

Compared with GACCAAGCUGCCCUCAGAGCUCGAGAACAUCAUCGGAUGCAGAGGUGGCAGGCUUCGGUGGCGCGAUAGCGCCAACAUCCUCAACCUCCAAUGCAUCCCACCAAUUGAUGAUGCCUGAAGAGGCUUGGUUUUUUG, GACCAAUCUGCCCUCAGAGCUCGAGAACAUCUUCGGAUGCAGAGGAGGCAGGCUUCGGCGGCGCGAUAGCGCCAACGUCCUCAACCUCCAAUGCAUCCCACCACAUGAUGAUGCCUGAAGAGCCUUCGUUUUUUG is higher in “polymerase ribozyme fitness (log ratio)” value: -4.45 for the first, -1.09 for the second.

Going from GACCAAUCUGCCCUCAGAGCUCGAGAACUUCUUCGGAUGCAGAGGAGGCAGGCUUCGGUGGCGCGAUAUCGCCAACGUCCUCAACCUCCAAUGCAUCCCACCACAUGAUGAUGCCUGAAGAGACUUGGUUUUUUG to GACCAAUCUGCCCUCAGAGCUCGAGAACAUCUUUGGAUGCAGAGGAGGCAGUCUUCGGUGGCGCGAUACCGCCAACGUGCUCAACCUCCAAUGCAUCCCGCCACAUGAUGAUGUCUGAAGAGCCUUGGUUUUUUG, the “polymerase ribozyme fitness (log ratio)” value falls from -0.777 to -5.24.

Going from GACCAAUCUGCCCUCAGAGCUCGAGAACAUCUUCGGAUGCAGAGGAGGCAGGCUUCGGUGGCGCGAUAGCGUAAACGUCCUCAACCUCCAUUGCAUCCCACCACAUGAUGAUGCCUGAAGAGCCUUGGUUCCUUG to GACCAAUCUGCCCUCAGAGCUCGAGAACAUCUUCGGAUGCAGAGGAGGAAGGCUUCGGUGGCGCGAUAGCGCCAACGUCCUCAACCUCCAAGGCAUCCCACCACAUGAUGAUGCCUGAAGAGCCUUGGUUUUUUG, the “polymerase ribozyme fitness (log ratio)” value falls from -2.72 to -3.98.

Going from GACCAAUCUGCCCUCAGAGCUCGAGAACAUCUUCGGAUGCAGAGGAGGCAGGCUUCGGUGGCGCGAUAGCGCCAACUUCCUUAACCUCCAAUGCAUCCCACCACAUAAUGACGCCUGAAGAGCCUUGGUUUUUUG to GACCAAUCUGCCCUCAGUGCUCGAGAACAUUUUCGGAUGCAGAGGAGGCAGGCUUCGGUGGCGCGAUAGCGCCAACGUCCUCAACCUCCAAUGCAUCCCACCACAUGAUGAUGCCUGAAGAGCCUUGGUUUUUUG, the “polymerase ribozyme fitness (log ratio)” value rises from -5.86 to -5.66.

First: GACCAAUCUGCCCACAGAGCUCGAGAACAUCUUCGGAUGCAGAGGAGGCAGGCUUUGGUGGCGCGAUAGCGCUAACGUCCUCAACCUCCAAUGCAUCCCACCACAUGAUGAGGCCUGAACAGCCUUGGUUUUUUG
Second: GACCAAUCUGCCCUCAGAGCUCGAGAACAUCUUCGGAUGCUGAGGAGGCAGGCUUCGGUGGCGCGAUAGCGCCAAAGUCCACAACCUCCAAUGCAUCCCACCACAUGAUGAUGCCUGAAGAGCCUUGGUUUUUUG
The “polymerase ribozyme fitness (log ratio)” value of the first is higher: -1.15 for the first, -1.77 for the second.

Going from GACCAAUCUGCCCUCAGAGAUCGAGAACAUCUUCGGAUGCAGAGGAGGCAGGCUUCGGUGGCGCGAUAGCGCCAACGUCCUCAACCUGCAAUGCAUCCCACCACAUGAUGAUGCCUGAAGAGCCUUGGUUUUUUG to GACCAAUCUGCCCUCAGAGCUCGAGAACAUCUUCGGAUGCAGAGGAGGCAGGCUUCGGUGGCCCGAUAGCGCCAACGUCCUCAACCUCCAAUGCAUCCCACCACAUGAUGAUUCCUGAAGAGCCUUGGUUUUUUG, the “polymerase ribozyme fitness (log ratio)” value falls from -3.11 to -3.35.

First: GACCAAUCUGCCCUCAGAGCUCGAUAACAUCUUCGGAUGCAGAGGAGGCAGGCUUGGGUGGCCCGAUAGCGCCAACGUCCUCAACCUCCAAUGCAUCCCACCACAUGAUGAUGCCUGAAGUGCCUUGGUUUUUUG
Second: GACCAAUCUGCCCUUAGAGCUCGAGAACAUCUUCGGAUGCAGAGGGGGCAGGCUUCGGUGGCGCGAUACCGCCAACGUCCUCAACGUCCAAUGCAUCCCACCACAUGAUGAUGCCUGAAGAGCUUUGGUUUUUUG
The “polymerase ribozyme fitness (log ratio)” value of the first is lower: -5.04 for the first, -3.98 for the second.

For GACCAAUCUGCGCUCAGAGCUCGAGAACAUCUUCGGAUACAGAGGAGGCAGGCUUCGGUGGCGCGAUAGCGCCAACGUCCUCAACCUCAAAUGCAUCCCACCACACGAUGAUGCCUGAAGAGCCUUGGUUUUUUG, the “polymerase ribozyme fitness (log ratio)” value was -2.19.
